Experimental data from publication PMC8635274.

Legend:
[1] = target: mCherry-FKBP-Ubc9 (UniProt P63279)
[2] = target: mCherry-FKBP-Ubc9 (UniProt P63279); remark: listed apart in the source

KM of SUMOylation of RanGAP by E2 (Ubc9), without scaffolds [1] | KM of SUMOylation of RanGAP* by E2 (Ubc9), without scaffolds [2] | Substance
2.5 µM |  | FKBP-RanGAP (from UniProt P46060 398-587)
 | 150 µM | FKBP-EGFP-RanGAP* (from UniProt P46060 398-587)
